In the RNAGym collection of RNA variant scans (doi:10.1073/pnas.2313332121):

B1: TPR t1 (parent)
chain: GACCAAUCUGCCCUCAGAGCUCGAGAACAUCUUCGGAUGCAGAGGAGGCAGGCUUCGGUGGCGCGAUAGCGCCAACGUCCUCAACCUCCAAUGCAUCCCACCACAUGAUGAUGCCUGAAGAGCCUUGGUUUUUUG

Variants of: B1
Test: polymerase ribozyme fitness, log enrichment relative to wild type (log ratio); higher = more active; in vitro selection for triplet polymerase activity
Method in brief: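 In triplicate, a single round of in vitro selection was run on each mutant library, PCR-built and transcribed, covering one subunit of a heterodimeric triplet polymerase ribozyme. Frozen incubation at −7 °C followed annealing with a biotinylated primer, partner subunit and triplets, and extended constructs were then gel-excised, streptavidin-captured and taken through RT-PCR. Fitness is the logarithm of genotype enrichment over wild-type enrichment, from inverse-variance-weighted replicate averages of Illumina-sequenced inputs and outputs. […] only genotypes with ≥10 input reads and ≥1 read per output were kept.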

Row | Variant | polymerase ribozyme fitness (log ratio)
1 | C56A C72U C104A | -1.61
2 | U55C U96A U106A | -0.506
3 | G58U U81A C124A | 1.33
4 | U59C G113A | -1.03
5 | U59C G113U | -3.62
6 | C56A G127U U129A U130C | -1.7
7 | G58A C101U G120U | -0.534
8 | C56G G69U C82U A95U G127U | -3.08
9 | C56G U78A G117A | -2.04
10 | G57C U106A U112A | 1.17
11 | G57C A100U U112C U125C | 0.722
12 | C56G C73A G93C | -4.53
13 | C56G C89G | -3.34
14 | G58A A103G | -4.88
15 | U55G U116G | -2.12
16 | G57A C76U A90U | -1.14
17 | C56U A83C U106A A118U C123G | 1.63
18 | C56G C98G | -4.96
19 | U55G U96A | -1.38
20 | G57C G110A | -1.6
21 | C56U C72G | -0.66
22 | G57U G71A C104A U106C U125A U131C | -3.71
23 | C56G U109A G113C | -5.42
24 | C56A C72U | -0.391

Row | Variant | polymerase ribozyme fitness (log ratio)
25 | C56U G107A | -4.63
26 | C56U G107U | -4.6
27 | G58C U109G G117A | -5.76
28 | U59C U81G | -3.51
29 | C56U A100U U129A | -1.49
30 | G57C U125A | -0.636
31 | C56G U92C | -1.23
32 | C56G C101A | -1.08
33 | U59C G71U C88U U92A | -5.66
34 | U59C C80A U81C | -3.7
35 | U59A C70U U96C | -1.25
36 | C56U C82A G120A G128A | -0.705
37 | C56G G110U | -1.13
38 | G58U G60U C80U U87A C89U | -3.57
39 | G58C C115G C123A G135A | -3.89
40 | C56G A74U G120U G127A | -1.98
41 | G58A G60C | -0.284
42 | C56G G61C | -5.99
43 | G57C G120U C124U | 0.197
44 | C56A C80U G120C C123G | -0.961
45 | G58C U59G A95U G122A | -0.6
46 | C56A C79A A95C C101U U129A | -4.76
47 | C56U G113U C123G U130G | -2.36
48 | C56G U87G A100C | -1.94

Row | Variant | polymerase ribozyme fitness (log ratio)
49 | C56G G63A G135C | -2.89
50 | G58C G71A C82G C88G | -2.39
51 | C56G A74U U81A U87A | -4.29
52 | U55C G69C C76U C89A A121U U125G | -4.56
53 | C56U G69U C79A C101U | -3.71
54 | G58U C86A G117U U130G | -3.79
55 | C56G | -0.465
56 | C56U | 0.0734
57 | C56A | -0.243
58 | G57A U106G A121C | -0.75
59 | G58A G63A C98U U112A | -4.56
60 | G57C U116C | -0.186
61 | G58A C72G C82A | -0.468
62 | C56G G93U | -2.19
63 | C56U G57U C70A | -2.65
64 | C56U U130G | -1.27
65 | G57A C64U U78C U87C C104U G113A | -1.61
66 | U59A G93C C114U | -2.6
67 | C56G G135A | -1.39
68 | G58U C70G U106C C124U U130A | -2.53
69 | U55G C62U C102A | -1.77
70 | C56G C86U | 0.0765
71 | C56G U81A U125A | -1.81
72 | G57U C62G U112A | -2.56

Row | Variant | polymerase ribozyme fitness (log ratio)
73 | C56A C72U U109G | -5.76
74 | C56A C86A | -0.76
75 | U55C G58A U92C | -0.821
76 | U55C C82A | 0.163
77 | C56U G110U A121U | -1.11
78 | G58A C124A | 2.39
79 | C56G G61C A95G A111U | -6.34
80 | G57C C89G | -0.917
81 | G58C U59G C86G | -0.556
82 | C56G G63A C101G G122U | -5.14
83 | G58U C62A U92A | -5.81
84 | C56G U112C | 1.26
85 | U55G C85A | -1.66
86 | G57U U106G G128C | -3.98
87 | C56G G77C | -0.126
88 | C56G G77A | -0.468
89 | C56G G122A | -1.46
90 | G58C C102A G120A | -2.34
91 | C56G U109C | -3.23
92 | C56U C72U C80U A90C | -2.11
93 | G57C G71U G113C | -3.12
94 | U55C U125A | -1.11
95 | U55G G63U A108G | -2.44
96 | G57U U87G G113A C123U | -1.98

Row | Variant | polymerase ribozyme fitness (log ratio)
97 | G58A A83U U106A | -1.14
98 | G57A C72U G127U | -2.52
99 | G58A C82U C115A C124U | -0.385
100 | C56G A103U U109G | -6.5
101 | C56A A68G G120C | -4.19
102 | C56A C88U G120U | -0.86
103 | C56U C115U U126A | -2.48
104 | G57U C72U C102A | -2.25
105 | C56G C62U | 0.102
106 | G58U G60A G77U | 0.541
107 | C56U C86G A111U U129G | -5.47
108 | G58A G63U A118G | -0.392
109 | C56U C94U | 0.204
110 | U55C C70A C97U U116A | -4.83
111 | C56U U81C | 0.0987
112 | C56U A90G C104U G117A A118U U131G | -2.92
113 | C56U G110U | -0.767
114 | G57A A66C | -2.98
115 | U55C G61A U125A | -0.857
116 | C56U C124A | 1.7
117 | C56U C73A C85A A91G | -5.09
118 | C56A C97A | -3.81
119 | C56G U106A | -0.921
120 | C56A C124G | 1.08

Row | Variant | polymerase ribozyme fitness (log ratio)
121 | C56A C124U | 1.18
122 | G57U C104A U106C U125A U131C | -1.82
123 | C56U A90G | 0.117
124 | G57A C94U | -2.53
125 | C56U G63C G110A | -4.56
126 | G58C G117A | -0.561
127 | C56G G107A | -5.95
128 | C56U G57U G69U C114U C115A | -4.53
129 | G57U A119U G120U | -0.267
130 | C56A A111U U129C | -4.47
131 | G57U G128A | -1.33
132 | C56G C98A U112A C123A | -4.9
133 | U59A C70G | -5.27
134 | C56G G63U | -4.87
135 | U59C A118C | -2.95
136 | U59A G77A | -0.182
137 | C56A C101A | -0.979
138 | U59A U92G C104U | -2.6
139 | C56U G128C | -2.63
140 | C56A G71U U78G A105G A119U G122A | -5.65
141 | C56U U78C U81G C94U | -1.62
142 | C56U U96C | 0.246
143 | G57U G61C U78G C114U A118U | -5.83
144 | G58A U130G | -0.629

Row | Variant | polymerase ribozyme fitness (log ratio)
145 | G58U C73A | -0.295
146 | U59C G71C | -3.63
147 | C56U C72A A100C C104U A121G | 1.21
148 | G57U A84C C101G G122A | -3.55
149 | U59C G63A G69U | -5.13
150 | C56U G127C | -1.62
151 | C56U G127A | -1.2
152 | G58A G71A U81G U132C | -3.8
153 | C56G G57U C101G A111C | -1.77
154 | C56U U87A | -0.176
155 | C56A G122A | -0.936
156 | C56U A74C A91G | -1.72
157 | C56G G69C | -4.54
158 | G58C G120U | 0.305
159 | C56A C123G | 1.24
160 | C56G G69U C124U | 0.715
161 | U59A U87A G113U A118G | -4.7
162 | U59C U78C G122A | -0.562
163 | C56U U59G C114G | -1.96
164 | C56U G61U | -2.88
165 | C56G U116C U130G | -0.701
166 | C56A C94U | -0.146
167 | C56U G120C G127U | 2.09
